Test results reported in US7060266.

Legend:
[1] = target: synthetic Aβ 1-42, P05067
[2] = target: natural brain APP pretreated with chondroitinase ABC, P05067
[3] = target: synthetic Aβ 1-40, P05067
[4] = target: natural brain APP prepared from human hippocampus, P05067

Row | Protein | digestion of synthetic Aβ 1-42 (Western blot) [1] | proteolysis of chondroitinase ABC-pretreated brain APP [2] | digestion of synthetic Aβ 1-40 (Western blot) [3] | proteolysis of natural brain APP (Western blot with anti Aβ 1/14 antibody) [4] | proteolytic activity of native-PAGE fractions for natural brain APP [4]
1 | human brain carboxypeptidase B, 40 kDa protease (prepro-HBCPB) (protein) ASASYYEQYHSLNEIYSWIEFITERHPDMLTKIHIGSSFEKYPLYVLKVSGKEQTAKNAIWIDCGIHAREWISPAFCLWFIGHNRMWRKNRSFYANNHCIGTDLNSNFVSKHWCEEGASSSSCSETYCGLYPESEPEVKAVASFLRRNINQIKAYISMHSYSQHIVFPYSYTRSKSKDHEELSLVASEAVRAIDKTSKNTRYTHGHGSETLYLAPGGGDDWIYDLGIKYSFTSNPPVEKLLPLSLK | low-molecular weight peptides formed in a dose-dependent manner | it was shown that the reaction is almost completely inhibited | low-molecular weight peptides formed in a dose-dependent manner | the 40 kDa protein degraded natural brain APP, generating a 5.5 kDa fragment as the major component of the 3 to 11 kDa Aβ-containing peptides | 
2 | human brain carboxypeptidase B, 30 kDa mature form (protein) ASASYYEQYHSLNEIYSWIEFITERHPDMLTKIHIGSSFEKYPLYVLKVSGKEQTAKNAIWIDCGIHAREWISPAFCLWFIGHNRMWRKNRSFYANNHCIGTDLNRNFASKHWCEEGASSSSCSETYCGLYPESEPEVKAVASFLRRNINQIKAYISMHSYSQHIVFPYSYTRSKSKDHEELSLVASEAVRAIEKTSKNTRYTHGHGSETLYLAPGGGDDWIYDLGIKYSFTSNPPVEKLLPLSLK |  |  |  |  | fraction 19 with a molecular mass of about 40 kDa and fraction 11 with a molecular mass of about 30 kDa had similar proteolytic activities
